To fix the notation:
B1: Lsm 169N (MBP fusion) (domain or fragment, human, UniProt P83369 1-169, looked up)
chain: MEERERGARSAGAGSPARPPSPRLDVSSDSFDPLLALYAPRLPPIPYPNAPCFNNVAEYESFLRTGVRGGGRGRGRARGAAAGSGVPAAPGPSGRTRRRPDAPAPDPERIQRLRRLMVAKEEGDGAAGAGRRGPGRSRKAPRNVLTRMPLHEGSPLGELHRCIREGVKV

The target in experiment [1] is T1, MiniFLASH (human, UniProt Q9UKL3 1-138; Q9UKL3 1931-1982).
T1 sequence (looked up): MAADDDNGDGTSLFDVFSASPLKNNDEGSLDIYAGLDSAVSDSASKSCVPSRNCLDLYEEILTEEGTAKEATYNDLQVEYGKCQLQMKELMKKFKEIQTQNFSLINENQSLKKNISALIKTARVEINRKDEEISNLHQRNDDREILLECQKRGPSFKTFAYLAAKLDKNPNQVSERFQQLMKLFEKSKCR
Description: HDX-MS.

Experiment [2] deals with B1. The experiment in a line: HDX-MS.

For the molecule B1, in experiment [1], the binding result is listed as “binds”.

B2: FLASH 159N (domain or fragment, human, UniProt Q9UKL3 1-159, looked up)
chain: MAADDDNGDGTSLFDVFSASPLKNNDEGSLDIYAGLDSAVSDSASKSCVPSRNCLDLYEEILTEEGTAKEATYNDLQVEYGKAQLQMKELMKKFKEIQTQNFSLINENQSLKKNISALIKTARVEINRKDEEISNLHQRLSEFPHFRNNHKTARTFDTV
In the case of B2, in experiment [2], the binding result is recorded as “binds”.

B3: FLASH 138N (domain or fragment, human, UniProt Q9UKL3 29-138, looked up)
chain: SLDIYAGLDSAVSDSASKSCVPSRNCLDLYEEILTEEGTAKEATYNDLQVEYGKAQLQMKELMKKFKEIQTQNFSLINENQSLKKNISALIKTARVEINRKDEEISNLHQ
With B3, in experiment [2], the binding result is on record as “binds”.

For the origin of these results see paper PMC4847949 (Journal of molecular biology, 2016).
